Positions count from the first letter of the chain named. In names and notes the source's numbering stands.
B1: CE115HA000/GLS3000 F55R one-arm antibody (antibody, human IgG1, kappa, L234A L235A, N297A, name in Kabat numbering)
heavy: QVQLVESGGGVVQPGRSLRLSCAASGFTFSNAWMHWVRQAPGKGLEWVAQIKAKSNNYATYYAESVKGRFTISRDDSKNSLYLQMNSLKTEDTAVYYCRYVHYGAYYGVDAWGQGTTVTVSSASTKGPSVFPLAPSSKSTSGGTAALGCLVKDYFPEPVTVSWNSGALTSGVHTFPAVLQSSGLYSLSSVVTVPSSSLGTQTYICNVNHKPSNTKVDKKVEPKSCDKTHTCPPCPAPEAAGGPSVFLFPPKPKDTLMISRTPEVTCVVVDVSHEDPEVKFNWYVDGVEVHNAKTKPREEQYASTYRVVSVLTVLHQDWLNGKEYKCKVSNKALPAPIEKTISKAKGQPREPQVYTLPPSRCELTKNQVSLSCAVKGFYPSDIAVEWESNGQPENNYKTTPPVLDSDGSFFLVSKLTVDKSRWQQGNVFSCSVMHEALHNHYTQKSLSLSPDYKDDDDK
chain: EPKSSDKTHTCPPCPAPELLGGPSVFLFPPKPKDTLMISRTPEVTCVVVDVSHEDPEVKFNWYVDGVEVHNAKTKPREEQYNSTYRVVSVLTVLHQDWLNGKEYKCKVSNKALPAPIEKTISKAKGQPREPQVCTLPPSRDELTKNQVSLWCLVKGFYPSDIAVEWESNGQPENNYKTTPPVLDSDGSFFLYSKLTVDKSRWQQGNVFSCSVMHEALHNRYTQKSLSLSP
light: DIVMTQSPLSLPVTPGEPASISCRSSQSLVHSNRNTYLHWYQQKPGQAPRLLIYKVSNRRSGVPDRFSGSGSGTDFTLKISRVEAEDVGVYYCGQGTQVPYTFGQGTKLEIKRTVAAPSVFIFPPSDEQLKSGTASVVCLLNNFYPREAKVQWKVDNALQSGNSQESVTEQDSKDSTYSLSSTLTLSKADYEKHKVYACEVTHQGLSSPVTKSFNRGEC
notes: one-arm IgG1
B2: CE115HA000/GLS3000 G89F one-arm antibody (antibody, human IgG1, kappa, L234A L235A, N297A, name in Kabat numbering)
heavy: B1 heavy
chain: B1 chain
light: B1 light with R60F, G94F
notes: one-arm IgG1
B3: CE115HA000/GLS3000 H34M one-arm antibody (antibody, human IgG1, kappa, L234A L235A, N297A, name in Kabat numbering)
heavy: B1 heavy
chain: B1 chain
light: B1 light with H39M, R60F
notes: one-arm IgG1
B4: CE115HA000/GLS3000 H34E one-arm antibody (antibody, human IgG1, kappa, L234A L235A, N297A, name in Kabat numbering)
heavy: B1 heavy
chain: B1 chain
light: B1 light with H39E, R60F
notes: one-arm IgG1
B5: CE115HA000/GLS3000 G89L one-arm antibody (antibody, human IgG1, kappa, L234A L235A, N297A, name in Kabat numbering)
heavy: B1 heavy
chain: B1 chain
light: B1 light with R60F, G94L
notes: one-arm IgG1
B6: CE115HA000/GLS3000 H34S one-arm antibody (antibody, human IgG1, kappa, L234A L235A, N297A, name in Kabat numbering)
heavy: B1 heavy
chain: B1 chain
light: B1 light with H39S, R60F
notes: one-arm IgG1
B7: CE115HA000/GLS3000 H34I one-arm antibody (antibody, human IgG1, kappa, L234A L235A, N297A, name in Kabat numbering)
heavy: B1 heavy
chain: B1 chain
light: B1 light with H39I, R60F
notes: one-arm IgG1
B8: CE115HA000/GLS3000 H34G one-arm antibody (antibody, human IgG1, kappa, L234A L235A, N297A, name in Kabat numbering)
heavy: B1 heavy
chain: B1 chain
light: B1 light with H39G, R60F
notes: one-arm IgG1
B9: CE115HA000/GLS3000 H34V one-arm antibody (antibody, human IgG1, kappa, L234A L235A, N297A, name in Kabat numbering)
heavy: B1 heavy
chain: B1 chain
light: B1 light with H39V, R60F
notes: one-arm IgG1
B10: CE115HA000/GLS3000 G91D one-arm antibody (antibody, human IgG1, kappa, L234A L235A, N297A, name in Kabat numbering)
heavy: B1 heavy
chain: B1 chain
light: B1 light with R60F, G96D
notes: one-arm IgG1
B11: CE115HA000/GLS3000 H34K one-arm antibody (antibody, human IgG1, kappa, L234A L235A, N297A, name in Kabat numbering)
heavy: B1 heavy
chain: B1 chain
light: B1 light with H39K, R60F
notes: one-arm IgG1
B12: CE115HA000/GLS3000 F55S one-arm antibody (antibody, human IgG1, kappa, L234A L235A, N297A, name in Kabat numbering)
heavy: B1 heavy
chain: B1 chain
light: B1 light with R60S
notes: one-arm IgG1
B13: CE115HA000/GLS3000 G89N one-arm antibody (antibody, human IgG1, kappa, L234A L235A, N297A, name in Kabat numbering)
heavy: B1 heavy
chain: B1 chain
light: B1 light with R60F, G94N
notes: one-arm IgG1
B14: CE115HA000/GLS3000 H34F one-arm antibody (antibody, human IgG1, kappa, L234A L235A, N297A, name in Kabat numbering)
heavy: B1 heavy
chain: B1 chain
light: B1 light with H39F, R60F
notes: one-arm IgG1
B15: CE115HA000/GLS3000 H34T one-arm antibody (antibody, human IgG1, kappa, L234A L235A, N297A, name in Kabat numbering)
heavy: B1 heavy
chain: B1 chain
light: B1 light with H39T, R60F
notes: one-arm IgG1
B16: CE115HA000/GLS3000 G91E one-arm antibody (antibody, human IgG1, kappa, L234A L235A, N297A, name in Kabat numbering)
heavy: B1 heavy
chain: B1 chain
light: B1 light with R60F, G96E
notes: one-arm IgG1
B17: CE115HA000/GLS3000 G89E one-arm antibody (antibody, human IgG1, kappa, L234A L235A, N297A, name in Kabat numbering)
heavy: B1 heavy
chain: B1 chain
light: B1 light with R60F, G94E
notes: one-arm IgG1
B18: CE115HA000/GLS3000 G89A one-arm antibody (antibody, human IgG1, kappa, L234A L235A, N297A, name in Kabat numbering)
heavy: B1 heavy
chain: B1 chain
light: B1 light with R60F, G94A
notes: one-arm IgG1
B19: CE115HA000/GLS3000 H34D one-arm antibody (antibody, human IgG1, kappa, L234A L235A, N297A, name in Kabat numbering)
heavy: B1 heavy
chain: B1 chain
light: B1 light with H39D, R60F
notes: one-arm IgG1
B20: CE115HA000/GLS3000 G89H one-arm antibody (antibody, human IgG1, kappa, L234A L235A, N297A, name in Kabat numbering)
heavy: B1 heavy
chain: B1 chain
light: B1 light with R60F, G94H
notes: one-arm IgG1
B21: CE115HA000/GLS3000 F55W one-arm antibody (antibody, human IgG1, kappa, L234A L235A, N297A, name in Kabat numbering)
heavy: B1 heavy
chain: B1 chain
light: B1 light with R60W
notes: one-arm IgG1
B22: CE115HA000/GLS3000 G89M one-arm antibody (antibody, human IgG1, kappa, L234A L235A, N297A, name in Kabat numbering)
heavy: B1 heavy
chain: B1 chain
light: B1 light with R60F, G94M
notes: one-arm IgG1
B23: CE115HA000/GLS3000 G89K one-arm antibody (antibody, human IgG1, kappa, L234A L235A, N297A, name in Kabat numbering)
heavy: B1 heavy
chain: B1 chain
light: B1 light with R60F, G94K
notes: one-arm IgG1
B24: CE115HA000/GLS3000 G91A one-arm antibody (antibody, human IgG1, kappa, L234A L235A, N297A, name in Kabat numbering)
heavy: B1 heavy
chain: B1 chain
light: B1 light with R60F, G96A
notes: one-arm IgG1
B25: CE115HA000/GLS3000 G89I one-arm antibody (antibody, human IgG1, kappa, L234A L235A, N297A, name in Kabat numbering)
heavy: B1 heavy
chain: B1 chain
light: B1 light with R60F, G94I
notes: one-arm IgG1
B26: CE115HA000/GLS3000 F55T one-arm antibody (antibody, human IgG1, kappa, L234A L235A, N297A, name in Kabat numbering)
heavy: B1 heavy
chain: B1 chain
light: B1 light with R60T
notes: one-arm IgG1
B27: CE115HA000/GLS3000 G89D one-arm antibody (antibody, human IgG1, kappa, L234A L235A, N297A, name in Kabat numbering)
heavy: B1 heavy
chain: B1 chain
light: B1 light with R60F, G94D
notes: one-arm IgG1
B28: CE115HA000/GLS3000 H34N one-arm antibody (antibody, human IgG1, kappa, L234A L235A, N297A, name in Kabat numbering)
heavy: B1 heavy
chain: B1 chain
light: B1 light with H39N, R60F
notes: one-arm IgG1
B29: CE115HA000/GLS3000 H34L one-arm antibody (antibody, human IgG1, kappa, L234A L235A, N297A, name in Kabat numbering)
heavy: B1 heavy
chain: B1 chain
light: B1 light with H39L, R60F
notes: one-arm IgG1
B30: CE115HA000/GLS3000 H34Q one-arm antibody (antibody, human IgG1, kappa, L234A L235A, N297A, name in Kabat numbering)
heavy: B1 heavy
chain: B1 chain
light: B1 light with H39Q, R60F
notes: one-arm IgG1
B31: CE115HA000/GLS3000 F55Y one-arm antibody (antibody, human IgG1, kappa, L234A L235A, N297A, name in Kabat numbering)
heavy: B1 heavy
chain: B1 chain
light: B1 light with R60Y
notes: one-arm IgG1
B32: CE115HA000/GLS3000 F55V one-arm antibody (antibody, human IgG1, kappa, L234A L235A, N297A, name in Kabat numbering)
heavy: B1 heavy
chain: B1 chain
light: B1 light with R60V
notes: one-arm IgG1
B33: CE115HA000/GLS3000 H34P one-arm antibody (antibody, human IgG1, kappa, L234A L235A, N297A, name in Kabat numbering)
heavy: B1 heavy
chain: B1 chain
light: B1 light with H39P, R60F
notes: one-arm IgG1

What follows are binders tested against T1, CD3 epsilon homodimer protein (UniProt P07766 23-126) (assay: SPR (Biacore T200), CD3e homodimer on CM4 chip, antibody as analyte; KD ratio vs unaltered GLS3000;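 note: CD3 epsilon homodimer amine-coupled to the sensor surface, antibodies injected as analyte at 25 °C with HBS-EP+ running buffer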).
T1 construct: also called CD3 (CD3 epsilon)
T1 sequence (P07766 23-126): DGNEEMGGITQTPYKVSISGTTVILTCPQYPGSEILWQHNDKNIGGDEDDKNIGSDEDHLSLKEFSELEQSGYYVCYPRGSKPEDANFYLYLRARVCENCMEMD
Description: An appropriate amount of CD3 epsilon homodimer protein was immobilized onto Sensor chip CM4 (GE Healthcare Japan Corp.) by the amine coupling method. Then, the antibody having an appropriate concentration was injected thereto as an analyte and allowed to interact with the CD3 epsilon homodimer protein on the sensor chip. Then, the sensor chip was regenerated by the injection of 10 mmol/L glycine-HCl (pH 1.5). The assay was conducted at 25 degrees C., and HBS-EP+(GE Healthcare Japan Corp.) was used as a running buffer. […] Each parameter was calculated using Biacore T200 Evaluation Software (GE Healthcare Japan Corp.).
Specifically, when the amount of the GLS3000-containing antibody bound was defined as X and the amount of the L chain one-amino acid altered form bound was defined as Y, a value of Z (ratio of amounts bound)=Y/X was used.

| KD ratio to GLS3000 [ratio] | Binder |
| --- | --- |
| 1.27 | B1 |
| 3.34 | B2 |
| 3.16 | B3 |
| 8.03 | B4 |
| 2.38 | B5 |
| 1.24 | B6 |
| 0.89 | B7 |
| 1.08 | B8 |
| 1.04 | B9 |
| 44.8 | B10 |
| 4.1 | B11 |
| 1.15 | B12 |
| 1.2 | B13 |
| 3.5 | B14 |
| 1.1 | B15 |
| 48.5 | B16 |
| 34.6 | B17 |

| KD ratio to GLS3000 [ratio] | Binder |
| --- | --- |
| 1.1 | B18 |
| 2100 | B19 |
| 1.44 | B20 |
| 1.72 | B21 |
| 1.96 | B22 |
| 1.8 | B23 |
| 28.1 | B24 |
| 1.11 | B25 |
| 2.42 | B26 |
| 1.96 | B27 |
| 2.84 | B28 |
| 1.03 | B29 |
| 4.6 | B30 |
| 1.13 | B31 |
| 1.12 | B32 |
| 1.22 | B33 |

Source: patent US20240270846A1 (published 2024)
